In PMC6992001:
Where “and” joins values, the source holds several entries; their conditions need not be identical. Equal values may be shown once.

Molecular target: Pomacea canaliculata hemocyanin (PcH), native (Pomacea canaliculata)
Test: negative-stain transmission electron microscopy; native PcH 0.12 g/L in 20 mM Tris-HCl pH 7.4, 20 mM CaCl2, 20 mM MgCl2; 2% uranyl acetate, room temperature; self-association of subunits into decamers stacked to multi-decamers

Pomacea canaliculata hemocyanin (PcH), native (complex)
stoichiometry N: 20 subunits and 30 subunits and 40 subunits
